Here are results for two molecules from publication PMC4856590 (Structure (London, England : 1993), 2016).

Where no end group is shown, it is not given here. The star is where a group is joined. FITC = O=C1OC2(c3ccc(O)cc3Oc3cc(O)ccc32)c2ccc(NC(=S)*)cc21

In assay [1] the target is T1, human COP1 β-propeller (376-731) (human, UniProt Q8NHY2 376-731). In words: fluorescence polarisation. (In fluorescence polarisation assays a small probe gives low polarisation when free and higher when bound to something large.)
T1 sequence (Q8NHY2 376-731): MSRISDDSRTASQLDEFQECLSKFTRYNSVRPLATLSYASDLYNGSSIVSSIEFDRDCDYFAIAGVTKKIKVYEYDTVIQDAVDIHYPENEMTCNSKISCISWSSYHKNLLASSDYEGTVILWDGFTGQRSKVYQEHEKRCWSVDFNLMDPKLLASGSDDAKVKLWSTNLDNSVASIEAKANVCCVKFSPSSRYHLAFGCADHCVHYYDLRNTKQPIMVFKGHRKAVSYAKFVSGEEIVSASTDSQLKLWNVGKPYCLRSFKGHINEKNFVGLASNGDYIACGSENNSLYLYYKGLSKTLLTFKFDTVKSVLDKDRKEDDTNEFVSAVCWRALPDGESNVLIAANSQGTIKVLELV
The target of assay [2] is T1, human COP1 β-propeller (376-731). In words: fluorescence polarisation. This is another data set of the same source.

The term Kd denotes the equilibrium constant for the complex coming apart. A high value points to a looser complex. {FITC}-SEIGTSDQIVPEYQEDSDI [FITC-SEIGTSDQIVPEYQEDSDI] gave an equilibrium dissociation constant (Kd) in assay [1] of 250 ± 40 nM.

B1: Trib1 molecule containing residues 83-372 (domain or fragment, human, UniProt Q96RU8 83-372, looked up)
chain: GSAPGPSRIADYLLLPLAEREHVSRALCIHTGRELRCKVFPIKHYQDKIRPYIQLPSHSNITGIVEVILGETKAYVFFEKDFGDMHSYVRSRKRLREEEAARLFKQIVSAVAHCHQSAIVLGDLKLRKFVFSTEERTQLRLESLEDTHIMKGEDDALSDKHGCPAYVSPEILNTTGTYSGKAADVWSLGVMLYTLLVGRYPFHDSDPSALFSKIRRGQFCIPEHISPKARCLIRSLLRREPSERLTAPEILLHPWFESVLEPGYIDSEIGTSDQIVPEYQEDSDISSFFC
B1: the binding result in assay [2] was “binds”.
